Measurements as given in a protein production outcome set (Wang et al. 2014).

Experiment: label from the status in PepcDB records

| Sequence | protein production |
| --- | --- |
| MFEISRSRAKAMRPFLALATATVMMLSLAACSSSDNSSTNAQGNTDVAVGGQRFSTADQETAKLGSDAQPGQFPRTVVHAAGTTEITTKPERVVVLDTGELDSVLSLGITPVGMTTTKGANPVPSYLADKVKDVERVGTINELNIEAIAALKPDLIIGSQLRADKLYPQLSDIAPTVFSIRPGSPWKENFLLVGEALGMEKEAEEKLNEYADRVAELKNNVPQNTEVSLVRFMPNKLRLYGNKSLIGVVLADAGLARPEKQNVDDLAVEISPENIDQAAGSVIFYTSYGKPDATGETAVVEGPAWKNLEAVAAGKAHRVNDDVWFLGLGPTGAMEIVSDLHDYLLKK | failed |
| MFFKQFYDKHLSQASYLIGCQKTGEAMIIDPIRDLSSYIRVADEEGLTITHAAETHIHADFASGIRDVAIKLNASIYVSGESDDTLGYKNMPNQTHFVQHNDDIYVGNIKLKVLHTPGHTPESISFLLTDEGAGAQVPMGLFSGDFIFVGDIGRPDLLEKAVKVEGSSEIGAKQMFKSIESIKDLPNYIQIWPGHGAGSPCGKSLGAIPTSTLGYEKQTNWAFSENNEATFIDKLISDQPAPPHHFAQMKKINQFGMNLYQPYTVYPATNTNRLTFDLRSKEAYHGGHIEGTINIPYDKNFINQIGWYLNYDQEINLIGEYHLVSKATHTLQLIGYDDVAGYQLPQSKIQTRSIHSEDITGNESHILDVRNDNEWNNGHLSQAVHVPHGKLLETDLPFNRNDVIYVHCQSGIRSSIAIGILEHKGYHNIINVNEGYKDIHLSLEHHHHHH | failed |
| MFFTDWEGPWILTDFALELCMAVFNNARFFSNLSEYDDYLAYEVRREGYEAGYTLKLLTPFLAAAGVKNRDVERIAELSAKFVPDAEKAMATLQERWTPVVISTSYTQYLRRTASMIGVRGELHGTEVDFDSIAVPEGLREELLSIIDVIASLSGEELFRKLDELFSRSEVRKIVESVKAVGAGEKAKIMRGYCESKGIDFPVVVGDSISDYKMFEAARGLGGVAIAFNGNEYALKHADVAIISPTAMSEAKVIELFMERKERAFEVLSAVSIPETEIYIMENSDFGEVLEKSKRMRVRLRGLAGELG | not failed |
| MFGFLRSTTSNDNTLSDTQVNESYRYWRLHIMIGMYIGYAGFYFTRKTFNYAAPAMITDLGLDKGDLGLIGTLFYISYGLSKFLSGTISDRSNPRYFMGLGLIATGLINIAFGFSSSLAAFISLWVLNAWFQGWGWPSCSKLLTTWYSRSERGFRWAIWNTAHNIGGALIPILVGYLTLHYSWREGFILPGIIGVAIGLIVCWRLRDKPTTMGLPSVGKWRNDPLELAQENHGQGLSYREILKTYVFSNKYIWLLAFSYVLVYIVRTAVNDWGNLYLTEEHNYSLINANAALSLFEIGGFVGSLVAGWGSDKLFGGNRGPMNILFAIGIFLSVSALWLMPLTNFVFQAAGLFSVGFFVFGPQMLIGMAAAECSHKDSAGAATGFVGLFAYMGAALSGYPLAVILETYGWTGFFITISTCAAVIGLLLLPFLQAQSPQKPIETRVRL | failed |
| MFGTPSSSPSFGTPSSTPAFGTSSPAFGTPSATPAFGTPSNPSFSSGGFGSSLFSSPFSSQQPQQQQQQQQQQQPSSLFQQQPSSNFGFQSPFNNTAQQQQQTPFPNAQLTTQMAPVAPIPYSLADRDVQAIIEAYKEDPTNPKYAFQHLLFSVTEPQYRVKPAAVSDIMWAEAMSKLEGMDSTERERLWPQLVQGFKDLSQRLKLQDEVLVSDRDRIKTTQSNVKMLQRHLQASTFPSIERLRQKEQSLQRRMLRVMRIIEGLEGKGFRLPLTKGEAELSEKLTAITRQVKGPGAELSRRVQSLQTISRAQANSIAAGSSLYLPGSTKIDEQSLIDMQEVLQQETEAIGRLGNVLKRDMRDMEIMVAEDTEMALDS | failed |
| MFHVSFRYIFGLPPLILVLLPVASSDCDIEGKDGKQYESVLMVSIDQLLDSMKEIGSNCLNNEFNFFKRHICDANKEGMFLFRAARKLRQFLKMNSTGDFDLHLLKVSEGTTILLNCTGQVKGRKPAALGEAQPTKSLEENKSLKEQKKLNDLCFLKRLLQEIKTCWNKILMGTKEH | failed |
| MFIGGAIISFLFLFGYMWKEAHSNRIRHVTLSFPHFPDNGPPLTIFFISDIHRRSVSCRMLETVKGKADLVVIGGDLAEKGVPAARVRENVRRLQTVAPVYFVWGNNDDEVDYDLQSLLEEERVYVLKNKAEVWEHGGVPIALIGVGDVSRKEADIARALEHVPPESFRILACHNPAIIARLEDEQHISLVLSGHTHGGQIRLFSFGLYEKGGLKWHGNTALFTSNGYGTTGVPLRLGAPAETHLIKIVPGKLATEKLEHHHHHH | not failed |
| MFIGIVSLFLTVLVYLGAKKVYQRFPRVYTSPLLVTPAVLVGLLLLVNVPYESYNLGGGLLTDMLQPATVAFAIPLYKYFPVLKKYAVEIILNVAVGSCIAIISTALIAKWLHLGTGLIDSLVPRSVTTPIAVHVSEMIGGMPAVTAVFVILTALLGTVIGPMVIRYFRIDNEIARGVLLGTSAHGAGTSKAFELSSVSGTISSVSMILAAIMTLWPAPFCFHLCKKLSSRGQFFLCASPY | failed |
| MFILSAQRLSGTQVFRRLAEGCTGYSVSSGCRQRRRCCPGAPQRPRRVRVNALQLQSGLADPLDPKSEAEVREHLRSNSPAERALGINYARYLDESTRYDILLEMMEDTDPQVRYAAVTQLATVGSHDRQRTLKAVRKILWNTEEDASVRAGAADVLGGLRFHEAFPDLEKLFHESKDWVVRFSIIAALGEMGVREAFPILVEALHANKEPLVQLAAIGALGELGDERARVYLEPLVNSSDASIVERARFALDALDARGSERT | not failed |
| MFITLLLFFLSAAIIYFACEFFVNGVEWVGHRFKLGATATGTVLAAFGTALPESAVTFMAVVFGTTPEQKDIGVGAAMGGPLVLATLAYAVVGLTLARTRRAGSSQVEAAINADQRRLARDQAWFMGVFVFKVALGLLAFAWKPWLGLLFLAVYGLYVKRELTREEECLDCEDLEPLKLRPRDPSPSLFWACAQTVLALAVIALASHVFVRQIELLGLAMGASPHVAALLLAPVATELPEIMNALIWVRQGKERLALANISGAMMIQATIPSAMMIQATIPSALGIFLTPWLLDAPLLAAGGFTLAAILLLWLRFRRAAMSVPALSAVGGLYALFAGYLGWHFYA | failed |
| MFKDGSLIPYLTAGDPDKQSTLNFLLALDEYAGAIELGIPFSDPIADGKTIQESHYRALKNGFKLREAFWIVKEFRRHSSTPIVLMTYYNPIYRAGVRNFLAEAKASGVDGILVVDLPVFHAKEFTEIAREEGIKTVFLAAPNTPAERLKVIDDMTTGFVYLVSLYGTTGAREEIPKTAYDLLRRAKRICRNKVAVGFGVSKREHVVSLLKEGANGVVVGSALVKIIGEKGREATEFLKKKVEELLGI | not failed |
| MFKEVGEPNFPKLEEEVLAFWKREKIFQKSVENRKGGPRYTVYEGPPTANGLPHVGHAQARSYKDLFPRYKTMRGYYAPRRAGWDTHGLPVELEVEKKLGLKSKREIEAYGIERFNQACRESVFTYEKEWEAFTERIAYWVDLENAYATLEPTYIESIWWSLKNLFDRGLLYRDHKVVPYCPRCGTPLSSHEVALGYKEIQDPSVYVRFPLKEPKKLGLEKASLLIWTTTPWTLPGNVAAAVHPEYTYAAFQVGDEALILEEGLGRKLLGEGTPVLKTFPGKALEGLPYTPPYPQALEKGYFVVLADYVSQEDGTGIVHQAPAFGAEDLETARVYGLPLLKTVDEEGKLLVEPFKGLYFREANRAILRDLRGRGLLFKEESYLHSYPHCWRCSTPLMYYATESWFIKNTLFKDELIRKNQEIHWVPPHIKEGRYGEWLKNLVDWALSRNRYWGTPLPIWVCQACGKEEAIGSFQELKARATKPLPEPFDPHRPYVDQVELACACGGTMRRVPYVIDVWYDSGAMPFASLHYPFEHEEVFRESFPADFIAEGIDQTRGWFNFLHQLGVMLFGSIAFKNVICHGLILYEMGQKMSKSKGNVVDPWDIIREFGADALRWYIYVSAPPEADRRFGPNLVRETVRDYFLTLWNVYSFFVTYANLDRPDLKNPPPPEKRPEMDRWLLARMQDLIQRVTEALEAYDPTTSARALRDFVVEDLSQWYVRRNRRRFWKNEDALDREAAYATLYEALVLVATLAAPFTPFLAEVLWQNLVRSVRPEAKESVHLADWPEADPALADEALVAQMRAVLKVVDLARAARAKSGVKTRTPLPLLLVTAPTALEREGLKRFAHEIAEELNVKEVRVLEPGEEILSYRVLPNLKLLGRKYGKLVPKIREALQRERERAAALALKGEAIPLEVEGEALTLLPEEVLLEAEAPKGYQALEKDGYVAALKVEVTEALRMEGLARDLIRLLQQARKDMGLKVSDRIRVGYEAEGPYLEALKRHGPWIAEEVLATAFGEGLFGGFEARVEDEEGKAVFHLARAE | not failed |
| MFKGTNNASDFTLMSFSDRQAKNHEPRLKARRRGCLIVLADRIIDALYHPAGPCQGADKARQSAIQHFRLDVPEGQCHRLRHLLDMRPAMTQTQPAPACSLPCSILLLAGGRGSRMGGQDKGLVAWRGQPLIAHVQAVVRPLSDDLIISCNRNAERYRAYADRLVEDGQKDFPGPLAGVLAGLATARHPWLLVLACDAPQIDAALIQALLDARGNDTRPVMVQQAGQWQPMFSLIPTALLGDLRQAWDNGERSLLRALAAHGLRPLPCAADDPRLSNFNTPELLSEAGPKPLA | failed |
| MFKKHNFHFNWLPLILISTVSIMLIFNIRSILSEGIRPFLSVLTPFFWAFGIAYLINPLMMLIEKKFKLKRAFSLMISYILVIICVYILIAIIVPTIFDSLSELFSNLSEYASSAESWINNTLASMNVPLDLNHLNTSATEFISKTSTLLSNIVGSLLTQTIKITSSVVKFVFGFIISIYMLMDKETLIEGCKKIIIAVMPSEKSSELFISFMAEAHNIFSRFIIGKIIDSLIIGVLCYIGLLLMGTQYAVLISFIVGLTNMIPYFGPFIGMIPAFLLTLIVQPSMAIWVLLFIFILQQFDGWYLGPKILGDQVGVSPLFIIFAVTVGGGIFGVLGMFLSVPIIALIKIYTEKFIEYRLENKKQNFSE | failed |
| MFKNKLAVLFTCLSVFSFSAQSGSFDTVTLGSKGGIQDGNLTAFLIKSEADSNFVMLDAGSVVNGLIVSEQKGAFKDITVPDSSPYTKVGYLLKDKIKGYFISHAHLDHVAGLIISSPDDSKKPIYGLAATNKDLMKNYFNWSAWPNFGNKGEGFKLNKYNYVDLQPGVWSPIAETTMSVMSLPLSHSGGQSTVFILKDSEGDVFAYFGDTGPDEVEKSSAMKTAWSALAPFVKQGKLKGIIIEVSFTNETPDKSLFGHLTPNWLVKELSVLEDMNGKGSLNDLNVAISHIKYSLKNSEDPKVIIKKQLAEANDLGVNFIFPEQGDSLQF | failed |
| MFKVLAEAFASARLRLGAILFSPQSLAFLPAFCLGLYWYGGETALMITALVFPVFFLVARAKLAETVTTSRQDSVLGVMQPDGFQDIVAARFREARAGGLISTVFQIEIDDHTSLVERHGQRAAEVISTTSADRIAAVLRDRDAVTHLDTFKYAVCLEPVRQMDLELCIQLAGRIQAALEEPIALDATAVCITSSVGFCQQTKVLSRSGEAWLAAAGHALREAHLNGPGAIRAYSEKMQQKSEIRAELREEVAQALEKGQIKPWFQPQISTDTGLVTGFEALARWNHPKRGMVPPGAFLTAIEQAGMLEKLAEVMIFHAFTALKAWDSAGVCVPQVGVNFAGPELSNPKLVDKIIWELDRFDLAPERLAVEVLETVVANSPDDTITRNINGLSKLGCRIDLDDFGTGHASISSIRRFSVSRIKIDRSFVIKADRDPEQQRMISAILTMAERLEVETLAEGVESVGEHALLAQLGCDHVQGFGIGKPMPFDQTLDWIASHNAKLQATPQILPNKLRLEHHHHHH | not failed |
| MFKVTFAFENGSEVEAFANAGDNLLEVARGANVAIDAPCSGNGACGKCRVQLKGGELDSKKTLHISDEEFEKGWRLACMSKICADVEVLVPDIASAYKSRMKVA | failed |
